Two molecules from patent US20230416410A1 (ZOETIS SERVICES, published 2023) can be followed below.

Substitutions are numbered along the chain they refer to.

Common to all, as to assay: SPR Biacore, biotinylated receptor on SA sensor, pH 7.4, 15 C
Experiment [1] has as its target T1, CTLA4 Fc bIgG1aWin (canine; bovine, UniProt Q9XSI1 36-161, limits assumed).
T1 construct: No linker
T1 sequence: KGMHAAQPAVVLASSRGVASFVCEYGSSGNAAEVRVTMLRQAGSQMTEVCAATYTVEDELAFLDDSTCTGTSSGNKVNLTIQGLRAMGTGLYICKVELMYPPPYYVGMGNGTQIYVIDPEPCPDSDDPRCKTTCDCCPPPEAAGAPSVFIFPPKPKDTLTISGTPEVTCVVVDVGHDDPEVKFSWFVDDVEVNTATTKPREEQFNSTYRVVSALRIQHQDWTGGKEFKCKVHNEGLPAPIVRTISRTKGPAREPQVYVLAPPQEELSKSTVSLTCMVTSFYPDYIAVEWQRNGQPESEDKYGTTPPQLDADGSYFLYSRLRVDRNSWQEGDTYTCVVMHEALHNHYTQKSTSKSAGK
The protocol:
(§1) A Biacore SPR binding assay was designed to test the affinity of bovine IgG subclasses to bFcgR1, bFcgR2 and bFcgR3. All reported KD's were measured by Biacore (Cytiva, Marlborough, MA, USA) using series S SA sensor. Biotinylated-bovine FcgR1, R2 and R3 were captured on the sensor surface using a modified SA capture method to reach the desired surface density. 10 mM HEPES, 150 mM NaCl, 3 mM EDTA, 0.05% v/v surfactant P20, pH7.4 buffer was used as the running and titration buffer. Various concentrations of bovine CTLA4-Fc fusions or mAbs were titrated and flowed over the receptor surface and affinities were determined using Biacore T200 Evaluation software (Cytiva, Marlborough, MA, USA) with 1:1 binding model. The method of double referencing has been applied where the reference flow cell was subtracted from the flow cell containing immobilized receptors and blank runs containing buffer only were subtracted out from all runs. Flow cells were regenerated using 10 mM Glycine pH1.5. Runs were performed at 15° C.
(§2) The ability to knock out binding to bovine Fc gamma receptors was evaluated by comparing SPR Biacore bFcgR affinity of bIgG1a and bIgG1b wildtype Fc to the bIgG1a and bIgG1b mutations, described above. All mutations made to bIgG1 are identical for the a and b allotypes. Biacore methods for bFcgR1, R2, and R3 were performed as described in Example 1.

Experiment [2] deals with T2, CTLA4 Fc bIgG1aWinSAS (canine; bovine, UniProt Q9XSI1 36-161, limits assumed).
T2 construct: No linker
T2 sequence: T1 sequence with P237S, P239S
As to the method: as §1, §2

The target of experiment [3] is T3, CTLA4 Fc bIgG1aSAS (canine; bovine, UniProt Q9XSI1 36-161, limits assumed).
T3 construct: No linker
T3 sequence: T1 sequence with A142L, A143P, A145G, P237S, P239S
The protocol: as §1, §2

Experiment [4] concerns the target T4, CTLA4 Fc bIgG1aSAP (canine; bovine, UniProt Q9XSI1 36-161, limits assumed).
T4 construct: No linker
T4 sequence: T1 sequence with A142L, A143P, A145G, P237S
As to the method:
as §1, §2

The target of experiment [5] is T5, CTLA4 Fc bIgG1a (canine; bovine, UniProt Q9XSI1 36-161, limits assumed).
T5 construct: No linker; also called bIgG1a wildtype; CTLA4 Fc bIgG1a wildtype
T5 sequence: T1 sequence with A142L, A143P, A145G
As to the method:
as §1, §2

B1: recombinant bovine FcgR2 (receptor)
chain: KPDLPKAVVTIQPAWINVLREDHVTLTCQGTSFSAGNLTTWFHNGSSIHTQKQPSYSFRAGSNDSGSYRCQREQTSLSDPVHLDVISDWLLLQTPSLVFQEGEPIMLRCHSWRNQPLNKITFYQDRKSKIFSYQRTNFSIPRANLSHSGQYHCTAFIGKMLHSSQPVNITVQESSSSGPSSMTHHHHHHAGLNDIFEAQKIEWHE
modifications: biotin on the BAP tag (BirA)
notes: also called bFcgR2; bFcgRII
As for B1, the Kd (as a rule, the constant that tells how readily two partners part at equilibrium) in experiment [1] was 2.79 nM; in experiment [5] it was 3.37 nM. The binding result in experiment [2], in experiment [3] and in experiment [4] was “no binding” each time.

B2: recombinant bovine FcgR3 (receptor)
chain: DTQTADPSKAVVLLDPQWNHVLTNDRVTLKCQGDYPVEDNSTKWWHNGTLISSQTPSYFIADVKVQDSGEYKCQTGLSAPSDPVKLEVHVGWLLLQVAQRVVNVGKPIRLKCHSWKKTPVAKVQYFRNGRGKKYSHGNSDFHIPEAKLEHSGSYFCRGIIGSKNESSESVQITVQAPETLQTVSSFFLPWHQHHHHHHAGLNDIFEAQKIEWHE
modifications: biotin on the BAP tag (BirA)
notes: also called bFcgR3; bFcgRIII
For B2, the binding result in experiment [1], in experiment [2], in experiment [3] and in experiment [4] was “no binding” each time. This molecule also gave a Kd in experiment [5] of 14.3 nM.
